Source: the DeepSol protein solubility set

Assay: soluble on expression in E. coli; label from the status in PepcDB or PDB records

For “MGSDKIHHHHHHMTPKRFAFVIADLYGGGAEKSLLYTAAGLHQRGHTVKVFILRDRIEQPIPDGVTVENLALINRFSKMFSTPLVEKWQAARIARTLDDFAADVVLSCSCDKITRHLRHPNLWFWIKSDISAKFSDPDQRAKAFAKVHRFYTGRNVVAVSQGVKDNLLDVIGLRPAEIRAIYNPYEREPFLRLAEEPAPVPEGEYLINVGTYEPRKRHDRLLRAYKASGVTTPLVLLGKGKGDEEARLRKMIEDMGLAERVILPGYQTNPYPFIRHAKALILTSDAEGLPRALIESLLLGTPVVSVDCPSGPREILAGELADFLVPREDEAALADAIARMDAAPITVTEAHYRPFLKETVLPQFEALARSA”, which “soluble on expression in E. coli” value is on record?
Its value is “not soluble”.

Which “soluble on expression in E. coli” value does the source give for “MGSDKIHHHHHHMPPPVRVNWPRMRTTRRQTVTTWVGNVPVGSSHPIVVQSMTNTDTANAEATALQVAQLARAGSEIVRVTVNTREAAAALPEIVARLHDLGLDVPLVGDFHYNGHLLLREYPETARLLAKYRINPGNVGAGQHHDANFATMIEVAKTYGKPVRIGVNWGSLDQQVLARLMDENARRGSPKSGTDVMIDAMVTSALESAAYAEGLGLPHDRIIISVKVSSAPELWQVYRQLAPLCDYPLHLGLTEAGMGMKGMVASSVALAPLLSEGIGDTIRVSLTPEPGAPRKLEVEVAQQILQSLGLRQFLPQVTSCPGCGRTTSTFFQELARKIQDYIRDAMPEWKAKYPGVEDMQVAVMGCIVNGPGESKHANIGISLPGTGEDPRAPVYQDGKLLTTLKGPRIAEDFQELLEKYVEERYGHKSAHTTVQE” here?
The value was “not soluble”.

Which “soluble on expression in E. coli” value does the source give for “MSFTTISVIGLGYIGLPTAAAFASRQKQVIGVDINQHAVDIINRGEIHIVEPALGNVVKMAVEGGFLRATTTPVEADAYLIAVPTPFKGDHDPDMAYVEAAAKSIAPVLKKGALVILESTSPVGATEQMAGWLAGMRTDLTFPQQAGEQADVNIAYCPERVLPGQVMVELIKNDRVIGGMTPVCSARASALYKIFLEGECVVTNSRTAEMCKLTENSFRDVNIAFANELSLICAEQGINVWELIRLANRHPRVNILQPGPGVGGHCIAVDPWFIVAQNPQQARLIRTAREVNDGKPHWVVDQVKAAVTDCLAATDKRASEVKIACFGLAFKPNIDDLRESPAMGIAQSIARWHSGETLVVEPNIRQLPKKLDGLCTLAKLDAALAAADVLVMLVDHDEFKAIPGDAVHQRYVVDTKGVWR” here?
Its value is “soluble”.

For “SSTHVAGLGLDKMKLGNPQSFLDQEEADDQQLLEPEAWKTYTERRNALREFLTSDLSPHLLKRHHARMQLLRKCSYYIEVLPKHLALGDQNPLVLPSALFQLIDPWKFQRMKKVGTAQTKIQLLLLGDLLEQLDHGRAELDALLRSPDPRPFLADWALVERRLADVSAVMDSFLTMMVPGRLHVKHRLVSDVSATKIPHIWLMLSTKMPVVFDRKASAAHQDWARLRWFVTIQPATSEQYELRFRLLDPRTQQECAQCGVIPVAACTFDVRNLLPNRSYKFTIKRAETSTLVYEPWRDSLTLHTKPEPLEGPALSHSV”, which “soluble on expression in E. coli” value is on record?
Its value is “soluble”.

Which “soluble on expression in E. coli” value does the source give for “DGDYIKDAVKEINYFMRDWRVDQVKSMDLRTVDIMAAAHNLMDVNEPYMLLSGYRSPQTNAMLRSRSRGVARNSLHMQGQAADLRLASRSVSQMANAAIACRAGGVGKYYRSNFVHMDCGEVRSWGG” here?
The value was “not soluble”.

With “MGSSHHHHHHSSGLVPRGSHMKAIALISGGKDSFLSAYIAMQQGFDIVRAMIVRPQEYSYMFHFPNVDKAGYVAGMLGIEPEFVLEDGFQQRVKEYASDGVKAIVSGAIASEFQKTRLERIATEFSIISYTPLWKVDQHRVMRDILDAGIRAMIVSVSAEGFSENDLGREIDDKYLERLYHLEKRYGINITGEGGEYETFVFGFGNKYISVKGHRIWKGSGGYFNIDSVEERPDSC” as the sequence, how does the “soluble on expression in E. coli” value read?
The value was “soluble”.

Which “soluble on expression in E. coli” value does the source give for “MSAIENFDAHTPMMQQYLRLKAQHPEILLFYRMGDFYALFYDDAKRASQLLDISLTKRGASAGEPIPMAGIPYHAVENYLAKLVNQGESVAICEQIGDPATSKGPVERKVVRIVTPGTISDEALLQERQDNLLAAIWQDSKGFGYATLDISSGRFRLSEPADRETMAAELQRTNPAELLYAEDFAEMSLIEGRRGLRRRPLWEFEIDTARQQLNLQFGTRDLVGFGVENAPRGLCAAGCLLQYAKDTQRTTLPHIRSITMEREQDSIIMDAATRRNLEITQNLAGGAENTLASVLDCTVTPMGSRMLKRWLHMPVRDTRVLLERQQTIGALQDFTAGLQPVLRQVGDLERILARLALRTARPRDLARMRHAFQQLPELRAQLETVDSAPVQALREKMGEFAELRDLLERAIIDTPPVLVRDGGVIASGYNEELDEWRALADGATDYLERLEVRERERTGLDTLKVGFNAVHGYYIQISRGQSHLAPINYMRRQTLKNAERYIIPELKEYEDKVLTSKGKALALEKQLYEELFDLLLPHLEALQQSASALAELDVLVNLAERAYTLNYTCPTFIDKPGIRITEGRHPVVEQVLNEPFIANPLNLSPQRRMLIITGPNMGGKSTYMRQTALIALMAYIGSYVPAQKVEIGPIDRIFTRVGAADDLASGRSTFMVEMTETANILHNATEYSLVLMDEIGRGTSTYDGLSLAWACAENLANKIKALTLFATHYFELTQLPEKMEGVANVHLDALEHGDTIAFMHSVQDGAASKSYGLAVAALAGVPKEVIKRARQKLRELESIS” here?
The value was “soluble”.

With “MIIEERKNHELNLESIDRDLRMENVRQSAEKLGWEHFARSVRRNLLEKRQTLDARTRLDVLGSLVFMKEHLPIDNDATIARKVQQLSEGLGEHCVFSTQNSGFSIRNPDVTIDIGVAEDQISTCKIGYFGQPLTDAPGALALMKNGEFSKLRDSITAILSSLPKEITLSEKNACKEAFRALDQLLIRDAADSSFTAINTGKYGFYAPRNELRSGRIYYVAEPVLIRLAEKEGKTKADASYLDLLPYIEISFFKHDKPSKLPVFTQTGEWSTFNDANVCICVRFNQGFLLSQQTIRKLSHIVPKSPLVRNYVNFYRYMTGRVGVKSNLKLLTQFPDEGDIQQQYQVDSKMLTKEDDVVAMEMYLSDFRDLSKLIETLRSEWKHASLWESILAICESSKGEQKEVNAVDMQLVLRRTEFFLQFDTDYGSMTMQIFEKSPSNYVVKTTSQITGESPSLDFDKMLTEKLNSTWSIPATLTFAITDLKCRINSVLNCVISFDSSSSSDKQHQNYWSISNNNTQLMQSAAQKSAAKCTKKKVTVLEVGPAIEPTQLVYTRENDEEFQGSLLSSFGEVDDYYVKTSTIGRTRPQPRPKREPNQLTSMDMMSAELDKSRHTMEGSMRDAQTSSFLDAARVRMKQSIGAAHAVGLASHQPPASPVAAAAAAPGGPMRHNSYPSGFEPPPSVAPYDFPADPSKKQRKQRAKKQPGEEPPAGRGKGGKKGRGAGAVGAAAAGGRKSAGGAGENPFGMDPMRPPMLQRSSSEQHNPNPHQMSQYQMQQYQQNQQFRMHQMQQQQQQQFQMQSPKNPLVPAYTDEDSDEECDPPPPPKPQVSTSSRMSSVPSHPPPPPQQLGNPMVGYPGMPLQSPNHLPLTPSPLSAPPKPFSPEQQHHFGMKMRETSYWKELERLETKPDVEKLKQQLSSSSSSSQAEASDPPSTSTEAQDPPKPSSSSAPPPPKKKLGLEAAISKIRGQQEQALQKQLQQQESVESELATPHPGSSGAPPLAPHQVNRARNLNDIFDDEADDSSPTADIKPSLQALQKPTDTSSQSTSSEPPPKKEPADEQPEREKEKLILKIPKMLKPVVDDRREDRKERDRDRDRDRDRDEDREKVRDKEDKAQREKDKKEKERERRRQRDRDRTEQKKSDREKEPSKKRKLEKKDEKEKDRREPERKKGKSDGKEYSKASTTSLIPTLSLKNFRIPKKDTVEEEKKDVKEEAPGPSSSTESKKEPPSAAPITRKESTTAPVAPAVQQQQQRKESFTALPSLPEQQQHHREPLLKKKPPLQPPPPPQMTGPPIGIYPGPPAPGNLPGSSRPSGNRKQPLPPPPPMIRGPPPDQMYRDRSGGGGGSMRGGFPPASHYHGGTSGVNKQVASYAQGLPPGMGPPVVKPHGNNYQASQWVRPPTHRDSSHSYHGMPSLGPPQLQREPPAPPPPQMIPLPKDPPVLREHPREHRAHRGGADDDGPDSPEEGTLRIDDE” as the sequence, how does the “soluble on expression in E. coli” value read?
The value was “not soluble”.

For “MSSASELMRCSGRWTLFRRTLPRLRKCVGVGETSGREKPPNSPNSSTLPMMTKTELSPPQIHINFIFFLPKNVFILKNCSL”, which “soluble on expression in E. coli” value is on record?
Its value is “not soluble”.

With “MGSDKIHHHHHHMYSFVARQPILNQHRQTVAYELLFRMDITNKFPDVSPEFATAQLISDQFLTNPLARSVVEQPYYINFPHQMLINGQAEVLPQEKVVIEILENAAPDNDLFAAVKKLKRKGFKIALDDFSMDSEWDRFLPYIDVIKFDLTLSTFGDIENFIKRTKQRKLIYLAEKVETHEQYMQSKKLGISLFQGYFFSRPEMIKSKKLVNKSSNTIRLLREVNKPEINYAAIEELVCADLSLYYKLMRHITNIKYNTRFGITATSMSFRSMAMLLGQRELKRFVSLISITNSNENKPSELYRTSLIRARFFELLYASFNVKEDTTEAFLCGLLSLLDAVLDSPMPLLLSQIALSEKINQSLLENTGELAVYLTLIAKYEQQEWEELERLLIQLGIDEENFFTMIMEATQWADEIL” as the sequence, how does the “soluble on expression in E. coli” value read?
Its value is “not soluble”.

For “MGSDKIHHHHHHMTPIQSGILLEHRRFAIFMEAMIQGEFDAIRQGCKKFCQTLQELQQQYPDAGLGAVLAFGNDVWRDLDCNHCAAELKPFTPLGKGLAPATQRDLLIHIQSLRHDVNFTLAQAALAAFGSAIRIEEETHGFRWVEDRDLSGFIDGTENPQGDARHAVAIIPEGQPDAGGSYVFTQRWEHNLKQLQRFSVEQQEQMIGRTKQDNEELSSDERPVTSHLSRVDLKEDGKGLKILRQSLPYGTASGKNGLYFVAYCARLHNIEQQLLSMFGGRDGKRDDMLRFTRAVSGSYFFAPSLDQLLSL”, which “soluble on expression in E. coli” value is on record?
The value was “not soluble”.

For “MSRRLFGRLREALNRASEHIARGIVDTLAYKELKPEDLEPVLDDILIDLVESDVALEAAESIVAGVKEGLTGYRVRRGEPVEKVVRDALRKALLTLLDPGPRPDLAAEARRRCGGRPLVILFLGVNGTGKTTTIAKVAYMLRKAGVTPVIAAADTFRAGAQEQLAVHAEKLGVPIVRGRYGGDPASVAYDAVKHAESRGFCAVLVDTAGRMHVDSNLVEELRKIVRVVKPDYKILVVDSLTGNDAVEQARLFDEAVGVDGVIVTKVDADPKGGTLVSVAHAIRKPILYIGTGQRYEDLRPFDPQKIVDQLLG”, which “soluble on expression in E. coli” value is on record?
The value was “soluble”.

For “MSLMPLLDKLREQYGVGPVCSELHIAPSTYYHCQQQRHHPDKRSARAQHDDWLKREIQRVYDENHQVYGVRKVWRQLLREGIRVARCTVARLMAVMGLAGVLRGKKVRTTISRKAVAAGDRVNRQFVAERPDQLWVADFTYVSTWQGFVYVAFIIDVFAGYIVGWRVSSSMETTFVLDALEQALWARRPSGTIHHSDKGSQYVSLAYTERLKEAGLLASTGSTGDSYDNAMAESINGLYKAEVIHRKSWKNRAEVELATLTWVDWYNNRRLLGRLGHAPPAEAEKAYYASIGNDDLAAEGHHHHHH”, which “soluble on expression in E. coli” value is on record?
The value was “not soluble”.

For “MGSDKIHHHHHHMELKILVTGGNVFVPGRLNAHFSTVVYLEHKDRRIIIDPGNLSSMDELEEKFSELGISPDDITDVLFTHVHLDHIFNSVLFENATFYVHEVYKTKNYLSFGTIVGRIYSKVISSWKNVVLLKGEESLFDEKVKVFHTPWHAREHLSFLLDTENAGRVLITGDITPNRLSYYDIIKGYGSVQVKNFLDRVGRIDLLVFPHDAPLKPEVKK”, which “soluble on expression in E. coli” value is on record?
Its value is “soluble”.

For “GAMAPATVNVEVLQDKLDHPWALAFLPDNHGMLITLRGGELRHWQAGKGLSAPLSGVPDVWAHGQGGLLDVVLAPDFAQSRRIWLSYSEVGDDGKAGTAVGYGRLSDDLSKVTDFRTVFRQMPKLSTGNHFGGRLVFDGKGYLFIALGENNQRPTAQDLDKLQGKLVRLTDQGEIPDDNPFIKESGVRAEIWSYGIRNPQGMAMNPWSNALWLNEHGPRGGDEINIPQKGKNYGWPLATWGINYSGFKIPEAKGEIVAGTEQPVFYWKDSPAVSGMAFYNSDKFPQWQQKLFIGALKDKDVIVMSVNGDKVTEDGRILTDRGQRIRDVRTGPDGYLYVLTDESSGELLKVSPR”, which “soluble on expression in E. coli” value is on record?
The value was “soluble”.
